# Changes are numbered by the printed parent chain.
# B1: Nb46 (VHH)
# VHH: QVQLVESGGGLVQAGGSLRLSCAVSGSTLGINAIGWYRQPPGKQRELVASISSLGTTLYAESVKGRFAISRDNAKNTGYLQMNSLKPDDTAVYYCNMRTPYMRDYWGQGTQVTVSS
# B2: Nb76 (VHH)
# VHH: DVQLVESGGGLVQAGGSLRLSCAVSGRTFSISTMGWFRQAPGKERLFVAGITWHDGSTNYADSVKGRFTISRDNAKNTVYLQMNSLKPEDTALYYCAARKSINYVQEYDYWGRGTQVTVSS
# B3: Nb11 (VHH)
# VHH: HVQLVESGGGLVQAGGSLRLSCAVSGASAERVGWFRRAPGKEREFVAAIGANGGSTNYLDSVKGRFTISRDNAKNTVYLQMNSLKPQDTAVYYCAARNLETFDYTYWGRGTQVTVSS
# B4: Nb78 (VHH)
# VHH: B3 VHH with H1Q, V24I, E30N, N52S, S55M, L99I, F102A, D103E, R109Q
# B5: Nb43 (VHH)
# VHH: EVQLVESGGGLVQAGGSLRLTCAASGRTFSSSTMDMGWFRQAPGKEREFVAVDAWNDGRTYYADSVKGRFTISRDNAKNTLYLQMNSLKPEDTAIYYCNLRQGCSYNGCDEYWGQGTQVTVSS
# B6: Nb66 (VHH)
# VHH: HVQLVESGGGLVQAGGSLRLSCAASGRTFSVNSIAWFRQAPGKEREFVATINWSGGDIYYADSVKGRFTISRDNGKNTVYLQMNSLKPTDTAVYYCAAARFYGRSIAQDYDSWGQGTQVTVSS
# B7: Nb37 (VHH)
# VHH: QVQLVESGGGLVQTGGSLRLSCAASGRTFSNYVMGWFRQAPGKEREFVSSIEWNSENTFYANSVKGRFTISRDNAKNTVYLQMNSLKAEDTAVYYCAADRGSSYYYTRASEYTYWGQGTQVTVSS
# B8: Nb3 (VHH)
# VHH: HVQLVESGGGLVQAGGSLRLSCVASGSGFEPNAMGWYRQAPGKQRELVAGITSGGNTNYADSVKGRFTISRDNVKNTVYLQMNSLKPEDTAVYYCNAVAPRINPRGSPTNYWGQGTQVTVSS
# B9: Nb4 (VHH)
# VHH: B8 VHH with H1Q, T57A, A99G, I102F
# B10: Nb16 (VHH)
# VHH: DVQLVESGGGLVQAGESLRLSCAASGDMFSSNAMAWYRQAPGKQRELVASITSGGNTNYADSVKGRFTISRDNAKNTVYLQMDSLKPEDTAVYYCNGVAYDYSWGRPRNFWGQGTQVTVSS
# B11: Nb24 (VHH)
# VHH: QVQLVESGGGLVQAGGSLRLTCAASGGTFSTSTMDMGWFRQAPGKEREFVALDSWNGGRTYYADSVKGRFTISRDNAKNTLYLQMNSLKPEDTAVYYCAADTYSNYEKDDSWGYWGQGTQVTVSS
# B12: Nb29 (VHH)
# VHH: B11 VHH with Q1H, L52V, G57D, T60A, D101E, D109A, D110Y
# B13: Nb26 (VHH)
# VHH: B11 VHH with Q1H, G27R, T31I, L52A, S54A, G57D, A99T, E107K
# B14: Nb32 (VHH)
# VHH: DVQLVESGGGLVQAGGSLRLSCAASGRTFSSDTMDMGWFRQAPGKEREFVALHSWNGGKTYYADSVKGRFTISRDNAKNTLYLQMNNLKPEDTAVYYCAAETYTLYEKDSSWGYWGQGTQVTVSS
# B15: Nb28 (VHH)
# VHH: B11 VHH with Q1H, T21S, G27R, A51G, L52A, G57D, S87N, D101E, N105L, D109S
# B16: Nb58 (VHH)
# VHH: QVQLVESGGGLVQAGGSLRLSCAASGRDFSSTVMGWFRQAPGKERELVAWMTVTYDITYYADSVKGRFTISKDNAKNTVYLQANSLKPDDTAVYYCASGALRVGSFSPDYWGQGTQVTVSS
# B17: Nb80 (VHH)
# VHH: HVQLVESGGGLVQPGGSLRLSCAASGNFFLINVMSWWRQAPGNEHELHELVATITSDGRTNYGDAVQGRFTISRDNAKNTLYLQMNSLKPEDTAVYYCYAQGQGNREYWGQGTQVTVSS
# B18: Nb39 (VHH)
# VHH: QVQLVESGGGLVQAGGSLRLSCAASGRTFRFSAIDWYRQAPGQQREFVASISTSGRISYGHFVKGRFTISRDNAKNTMYLQMNSLKPEDTAVYYCHLAQPDVFGGGDYWGQGTQVTVSS
# B19: Nb6 (VHH)
# VHH: HVQLVESGGGLVQAGGSLRLSCAASGRTFSTHATGWFRQAPGKEREFLATSVWLDDISRDSTYYAESVKGRFSISRDNAKDTVYLQMNSLKPEDTAVYYCAVKQRVGPGIMSAPTYDYWGQGTQVTVSS
# B20: Nb64 (VHH)
# VHH: QVQLVESGGGLVQAGGSLRLSCAVSGRTFSIAGMGWFRQAPGKDREFLGGITWNDGTTWYADSVKGRFTISRDNAKNMLSLRMNSLKPEDTAVYYCAAGPRLGSTPRAYDYWGQGTQVTVSS
# B21: Nb60 (VHH)
# VHH: HVQLVESGGGLVQAGDSLRLSCAASERTNINYAMGWFRQAPGKERDFVAAIGWNGSIIKYAESVKGRFTISRDDAKNTVSLQMNSLKPEDTAVYYCAARIGSIANLQPREYEFAYWGQGTQVTVSS
# B22: Nb63 (VHH)
# VHH: QVQLVESGGGLVQAGGSLRLSCVASGSGFEPNAMGWYRQAPGKQRELVAGITSGGNANYADSVKGRFTISRDNVKNTVYLQMNSLKPEDTAVYYCQGPACSGSGCRNYWGQGTQVTVSS
# B23: Nb62 (VHH)
# VHH: HVQLVESGGGLVQAGGSLRLTCAASGRTFSSSTMDMGWFRQAPGKEREFVAVDAWNDGRTYYADSVKGRFTISRDNAKNTLYLQMNSLKPGDTAVYYCHAVDVSVGGDYWGQGTQVTVSS
# B24: Nb15 (VHH)
# VHH: EVQLVESGGGLVAAGGSLRLSCVPSTNIFSANAMGWYRQAPGKQRELVASITSGGNTNYADSVKGRFTISRDNADTVILQMNSLKPEDTAVYYCKGTAYSTTYNSVRDYWGQGTQVTVSS
# B25: Nb41 (VHH)
# VHH: DVQLVESGGGLVQAGGSLRLSCAASGFTFSNYVMYWGRQAPGKGREWVSGIDSDGSDTAYASSVKGRFTISRDNAKKTLYLQMNDLKPEDTALYYCVKSKDRYGSPWTRSEFEDYWGQGTQVTVSS
# B26: Nb74 (VHH)
# VHH: HVQLVESGGGLVQAGGSLRLSCAASGRTFSSHAMAWFRQAPGKEREFVAGISWSGPYYVDSVKGRFTISTDNAKNTVYLQMNSLTPEDTAVYYCASSRGPNLYPHIGDVEYWGQGTQVTVSS
# B27: Nb90 (VHH)
# VHH: HVQLVESGGGLVQAGGSLRLSCAVSGRTVSSYVMGWFRQAPGKEREFVAGIGRTGMTITADSVKGRFTISRDNAKNLVYLQMNSLKSEDTAVYWCAAGVRDFAPRIDSYDYWGQGTQVTVSS
# B28: Nb2 (VHH)
# VHH: QVQLVESGGGLVQAGGSLRLSCAASGRTFSIYNMGWFRQAPGKEREFVIHMNWSNGNTATAASVKDRFTISRDNAKNTVYLQMSSLKPEDTAVYYCHATTNDYDYWGQGTQVTVSS
# B29: Nb48 (VHH)
# VHH: HVQLVESGGGLVQAGGSLRLSCAASGSIFRHYNMGWFRQAPGKEREFVSAISWTNIGTYYADSVKGRFSISRDNNRNTAYLEMNSLKPEDTAVYYCAADRSEFGSRLYSDENEYDYWGQGTQVTVSS
# B30: Nb18 (VHH)
# VHH: DVQLVESGGGLVQAGGSLRLSCAASGRTFSSYNVGWFRQAPGKEREFVAFIRWSGTSTYYADSVKGRFTISRDNAKNTVYLQMNSLKPEDTAVYYCAATSRTMIHTSQAMPINWDYWGQGTQVTVSS
# B31: Nb84 (VHH)
# VHH: B30 VHH with N33S, V34M, E89D, T99S, I104N, H105T, T106I, A109T, P111R
# B32: Nb100 (VHH)
# VHH: B30 VHH with D1E, R27L, V34M, N74T, P88L, A109T, P111R
# B33: Nb42 (VHH)
# VHH: HVQLVESGGGLVQAGESLRLSCVASGSIFSINAMGWFRQAPGKQRELVASISNIGTTIYAESVKGRFTISRDNAKNTADLQMNSLKPEDTAIYYCNLRQGCSYNGCDEYWGQGTQVTVSS
# B34: Nb83 (VHH)
# VHH: HVQLVESGGGLVQPGGSLRLSCAASGRSFNSYLMGWFRQAPGKEREFVAWISGSPHDIIRYRDSVKDRFTISRDNAKNTVYLQMNSLKPVDTAVYYCAVGSLRVGSFSPDYWGQGTQVTVSS
# B35: Nb55 (VHH)
# VHH: DVQLVESGGGLVQAGGSLRLSCAASGRTFGSTMAWFRQAPGKERDFVAAITWSADRISYADSVKGRFTISRDNDKNIVHLQMNSLKPEDTAVYVCAARASSNTYDDPRSFAFWGQGTQVTVSS
# B36: Nb68 (VHH)
# VHH: QVQLVESGGGLVQAGGSLRLSCAASGGTLRSYNMGWFRQGPGKEREFVAAISWTGLGTYYGDSVKGRFTISRDVIKNTLYLQMDSLKPEDTAIYYCAADSSTSRLHSAGSDYRYWGQGTQVTVSS
# B37: Nb82 (VHH)
# VHH: DVQLVESGGGLVQAGGSLGLSCAASGSIFRLTAMGWYRQAPGKQRDLVTTITSAGIPHYADSVKGRFTISRDNAKNTVYLQMNGLKPEDTAVYYCYANTLNSQLLPRAYWGQGTQVTVSS
# Target: SARS-CoV-2 spike receptor-binding domain (RBD) (SARS-CoV-2, UniProt P0DTC2 319-541)
# Assay: indirect ELISA on coated RBD ('ELISA affinity')
row,Binder,IC50 [pM]
1,B1,25900
2,B2,170
3,B3,390
4,B4,610
5,B5,664000
6,B6,330
7,B7,380
8,B8,480
9,B9,670
10,B10,370
11,B11,770
12,B12,1250
13,B13,920
14,B14,2170
15,B15,920
16,B16,2680
17,B17,5090
18,B18,1490
19,B19,570

row,Binder,IC50 [pM]
1,B20,450
2,B21,138000
3,B22,840
4,B23,85700
5,B24,470
6,B25,200
7,B26,67100
8,B27,4030
9,B28,4820
10,B29,1080
11,B30,570
12,B31,530
13,B32,1040
14,B33,660
15,B34,1510
16,B35,2240
17,B36,6110
18,B37,860

# From patent US20240043505A1 (UNIVERSITY OF PITTSBURGH OF THE COMMONWEALTH SYSTEM OF …, published 2024)
